Data reported in article PMC9482650, “Quantitative fragmentomics allow affinity mapping of interactomes” (Nature Communications, 2022).

T1: MPDZ_5, O75970
T1 sequence (O75970 695-796, limits assumed, looked up): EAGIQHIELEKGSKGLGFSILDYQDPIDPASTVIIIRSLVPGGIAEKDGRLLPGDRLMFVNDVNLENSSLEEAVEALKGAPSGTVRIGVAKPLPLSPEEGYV

T2: MPP7, Q5T2T1
T2 sequence (Q5T2T1 134-230, limits assumed, looked up): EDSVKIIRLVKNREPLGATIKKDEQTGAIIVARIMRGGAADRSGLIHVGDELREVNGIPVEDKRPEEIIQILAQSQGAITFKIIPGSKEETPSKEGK

T3: ARHGAP21, Q5T5U3
T3 sequence (Q5T5U3 45-169, limits assumed, looked up): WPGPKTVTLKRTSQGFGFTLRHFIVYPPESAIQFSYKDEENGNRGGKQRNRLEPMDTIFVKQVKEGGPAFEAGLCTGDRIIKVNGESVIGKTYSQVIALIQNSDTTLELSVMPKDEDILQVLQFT

T4: MPDZ_10, O75970
T4 sequence (O75970 1624-1722, limits assumed, looked up): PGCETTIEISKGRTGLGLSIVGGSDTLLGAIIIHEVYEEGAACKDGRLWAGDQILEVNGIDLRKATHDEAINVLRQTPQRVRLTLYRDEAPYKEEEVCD

T5: PDZD2_2, O15018
T5 sequence (O15018 329-429, limits assumed, looked up): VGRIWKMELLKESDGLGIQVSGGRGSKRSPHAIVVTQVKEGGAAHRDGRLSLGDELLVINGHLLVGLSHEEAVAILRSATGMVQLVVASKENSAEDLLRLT

T6: APBA1_1, Q02410
T6 sequence (Q02410 651-752, limits assumed, looked up): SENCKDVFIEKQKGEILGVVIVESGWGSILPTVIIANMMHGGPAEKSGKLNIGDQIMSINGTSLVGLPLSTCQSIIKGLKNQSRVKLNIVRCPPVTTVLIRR

T7: NHERF3_1, Q5T2W1
T7 sequence (Q5T2W1 4-100, limits assumed, looked up): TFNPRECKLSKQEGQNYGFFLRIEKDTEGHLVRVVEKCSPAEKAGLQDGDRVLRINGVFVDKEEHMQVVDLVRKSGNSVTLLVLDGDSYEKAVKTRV

T8: TX1BP3, O14907
T8 sequence (O14907 10-122, limits assumed, looked up): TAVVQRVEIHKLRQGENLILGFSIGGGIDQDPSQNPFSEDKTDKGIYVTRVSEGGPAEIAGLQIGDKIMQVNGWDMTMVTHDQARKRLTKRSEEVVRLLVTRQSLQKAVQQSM

T9: APBA1_2, Q02410
T9 sequence (Q02410 742-832, limits assumed, looked up): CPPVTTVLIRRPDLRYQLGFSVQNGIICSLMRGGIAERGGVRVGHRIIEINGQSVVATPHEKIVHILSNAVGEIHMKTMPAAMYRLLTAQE

T10: DLG3_3, Q92796
T10 sequence (Q92796 374-475, limits assumed, looked up): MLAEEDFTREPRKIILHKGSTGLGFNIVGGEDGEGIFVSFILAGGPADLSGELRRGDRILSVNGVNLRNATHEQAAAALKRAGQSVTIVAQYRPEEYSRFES


The binders below were run against T1, MPDZ_5, O75970 (assay: holdup assay). Settings: plain residues with an end cap or a label only (N-terminal biotin on a linker: ado-ado).
Parameters: key: below the threshold = too weak to quantify, mostly under pKd 3.1 to 4
With NNNVVKVDSV [MTNR1A, P48039] the pKd was “below the threshold”.

These binders were tested against T2, MPP7, Q5T2T1 (assay: holdup assay). Settings: plain residues with an end cap or a label only (N-terminal biotin on a linker: ado-ado).
Parameters: key: below the threshold = too weak to quantify, mostly under pKd 3.1 to 4
With NNNVVKVDSV [MTNR1A, P48039] the pKd was “below the threshold”.

These binders were tested against T3, ARHGAP21, Q5T5U3 (assay: holdup assay). Settings: plain residues with an end cap or a label only (N-terminal biotin on a linker: ado-ado).
Parameters: key: below the threshold = too weak to quantify, mostly under pKd 3.1 to 4
NNNVVKVDSV [MTNR1A, P48039] was tested, and the pKd was “below the threshold”.

What follows are binders tested against T4, MPDZ_10, O75970 (assay: holdup assay). Settings: plain residues with an end cap or a label only (N-terminal biotin on a linker: ado-ado).
Parameters: key: below the threshold = too weak to quantify, mostly under pKd 3.1 to 4
NNNVVKVDSV [MTNR1A, P48039] was tested, and the pKd was 3.68.

Each binder was assayed against T5, PDZD2_2, O15018 (assay: holdup assay). Settings: plain residues with an end cap or a label only (N-terminal biotin on a linker: ado-ado).
Parameters: key: below the threshold = too weak to quantify, mostly under pKd 3.1 to 4
Work on NNNVVKVDSV [MTNR1A, P48039] yielded a pKd of 3.98.

The binders below were run against PARD3_3, Q8TEW0 (assay: holdup assay). Settings: plain residues with an end cap or a label only (N-terminal biotin on a linker: ado-ado).
PARD3_3, Q8TEW0, sequence (Q8TEW0 582-685): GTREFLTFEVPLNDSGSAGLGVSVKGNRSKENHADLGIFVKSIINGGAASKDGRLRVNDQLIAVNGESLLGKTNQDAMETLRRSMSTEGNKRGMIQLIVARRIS
Parameters: key: below the threshold = too weak to quantify, mostly under pKd 3.1 to 4
NNNVVKVDSV [MTNR1A, P48039] was tested, and the pKd was “below the threshold”.

These binders were tested against T6, APBA1_1, Q02410 (assay: holdup assay). Settings: plain residues with an end cap or a label only (N-terminal biotin on a linker: ado-ado).
Parameters: key: below the threshold = too weak to quantify, mostly under pKd 3.1 to 4
With NNNVVKVDSV [MTNR1A, P48039] the pKd was “below the threshold”.

Each binder was assayed against T7, NHERF3_1, Q5T2W1 (assay: holdup assay). Settings: plain residues with an end cap or a label only (N-terminal biotin on a linker: ado-ado).
Parameters: key: below the threshold = too weak to quantify, mostly under pKd 3.1 to 4
With NNNVVKVDSV [MTNR1A, P48039] the pKd was “below the threshold”.

Each binder was assayed against T8, TX1BP3, O14907 (assay: holdup assay). Settings: plain residues with an end cap or a label only (N-terminal biotin on a linker: ado-ado).
Parameters: key: below the threshold = too weak to quantify, mostly under pKd 3.1 to 4
With NNNVVKVDSV [MTNR1A, P48039] the pKd was “below the threshold”.

What follows are binders tested against MAST2, Q6P0Q8 (assay: holdup assay). Settings: plain residues with an end cap or a label only (N-terminal biotin on a linker: ado-ado).
MAST2, Q6P0Q8, sequence (Q6P0Q8 1099-1202): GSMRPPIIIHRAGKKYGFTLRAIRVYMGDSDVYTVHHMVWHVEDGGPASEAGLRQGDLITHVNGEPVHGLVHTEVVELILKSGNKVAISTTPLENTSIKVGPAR
Parameters: key: below the threshold = too weak to quantify, mostly under pKd 3.1 to 4
For NNNVVKVDSV [MTNR1A, P48039], the pKd was “below the threshold”.

What follows are binders tested against DLG4_1, P78352 (assay: holdup assay). Settings: plain residues with an end cap or a label only (N-terminal biotin on a linker: ado-ado).
DLG4_1, P78352, sequence (P78352 62-152): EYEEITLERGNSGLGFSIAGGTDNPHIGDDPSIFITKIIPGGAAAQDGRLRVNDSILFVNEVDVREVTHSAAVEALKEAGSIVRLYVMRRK
Parameters: key: below the threshold = too weak to quantify, mostly under pKd 3.1 to 4
In the case of NNNVVKVDSV [MTNR1A, P48039], the pKd is reported as “below the threshold”.

Each binder was assayed against PICK1, Q9NRD5 (assay: holdup assay). Settings: plain residues with an end cap or a label only (N-terminal biotin on a linker: ado-ado).
PICK1, Q9NRD5, sequence (Q9NRD5 17-115): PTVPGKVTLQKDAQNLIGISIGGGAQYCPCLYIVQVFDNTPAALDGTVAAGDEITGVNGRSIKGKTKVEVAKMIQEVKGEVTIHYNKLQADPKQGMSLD
Parameters: key: below the threshold = too weak to quantify, mostly under pKd 3.1 to 4
NNNVVKVDSV [MTNR1A, P48039] was tested, and the pKd was 4.06.

What follows are binders tested against Inadl_4, Q8NI35 (assay: holdup assay). Settings: plain residues with an end cap or a label only (N-terminal biotin on a linker: ado-ado).
Inadl_4, Q8NI35, sequence (Q8NI35 547-651): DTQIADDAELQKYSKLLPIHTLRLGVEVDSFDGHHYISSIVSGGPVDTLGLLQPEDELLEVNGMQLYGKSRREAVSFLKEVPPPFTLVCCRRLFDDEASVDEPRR
Parameters: key: below the threshold = too weak to quantify, mostly under pKd 3.1 to 4
For NNNVVKVDSV [MTNR1A, P48039], the pKd was “below the threshold”.

The binders below were run against GRIP2_3, Q9C0E4 (assay: holdup assay). Settings: plain residues with an end cap or a label only (N-terminal biotin on a linker: ado-ado).
GRIP2_3, Q9C0E4, sequence (Q9C0E4 238-339): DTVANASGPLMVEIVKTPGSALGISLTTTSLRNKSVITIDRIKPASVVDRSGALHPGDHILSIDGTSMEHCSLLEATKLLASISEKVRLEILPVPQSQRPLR
Parameters: key: below the threshold = too weak to quantify, mostly under pKd 3.1 to 4
NNNVVKVDSV [MTNR1A, P48039] was tested, and the pKd was “below the threshold”.

These binders were tested against MAGI2_3, Q86UL8 (assay: holdup assay). Settings: plain residues with an end cap or a label only (N-terminal biotin on a linker: ado-ado).
MAGI2_3, Q86UL8, sequence (Q86UL8 600-682): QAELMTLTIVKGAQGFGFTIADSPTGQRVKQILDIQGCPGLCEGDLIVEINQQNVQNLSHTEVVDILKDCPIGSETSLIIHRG
Parameters: key: below the threshold = too weak to quantify, mostly under pKd 3.1 to 4
For NNNVVKVDSV [MTNR1A, P48039], the pKd was “below the threshold”.

These binders were tested against NOS1, P29475 (assay: holdup assay). Settings: plain residues with an end cap or a label only (N-terminal biotin on a linker: ado-ado).
NOS1, P29475, sequence (P29475 9-101): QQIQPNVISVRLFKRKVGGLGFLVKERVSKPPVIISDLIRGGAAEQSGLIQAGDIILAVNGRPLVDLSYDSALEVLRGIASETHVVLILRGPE
Parameters: key: below the threshold = too weak to quantify, mostly under pKd 3.1 to 4
Binder NNNVVKVDSV [MTNR1A, P48039] has a pKd of 3.86.

The binders below were run against LDB3, O75112 (assay: holdup assay). Settings: plain residues with an end cap or a label only (N-terminal biotin on a linker: ado-ado).
LDB3, O75112, sequence (O75112 1-94): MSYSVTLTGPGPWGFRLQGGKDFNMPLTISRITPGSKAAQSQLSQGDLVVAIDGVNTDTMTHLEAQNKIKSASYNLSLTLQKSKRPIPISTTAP
Parameters: key: below the threshold = too weak to quantify, mostly under pKd 3.1 to 4
In the case of NNNVVKVDSV [MTNR1A, P48039], the pKd is reported as “below the threshold”.

These binders were tested against SCRIB_2, Q14160 (assay: holdup assay). Settings: plain residues with an end cap or a label only (N-terminal biotin on a linker: ado-ado).
SCRIB_2, Q14160, sequence (Q14160 857-960): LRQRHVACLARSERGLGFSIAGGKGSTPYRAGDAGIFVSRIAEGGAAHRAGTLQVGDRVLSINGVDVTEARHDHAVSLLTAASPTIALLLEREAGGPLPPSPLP
Parameters: key: below the threshold = too weak to quantify, mostly under pKd 3.1 to 4
With NNNVVKVDSV [MTNR1A, P48039] the pKd was “below the threshold”.

What follows are binders tested against NHERF4_2, Q86UT5 (assay: holdup assay). Settings: plain residues with an end cap or a label only (N-terminal biotin on a linker: ado-ado).
NHERF4_2, Q86UT5, sequence (Q86UT5 220-308): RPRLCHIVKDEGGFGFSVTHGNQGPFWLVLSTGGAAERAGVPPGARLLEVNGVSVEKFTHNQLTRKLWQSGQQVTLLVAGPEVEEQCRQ
Parameters: key: below the threshold = too weak to quantify, mostly under pKd 3.1 to 4
In the case of NNNVVKVDSV [MTNR1A, P48039], the pKd is reported as “below the threshold”.

These binders were tested against NHERF2_2, Q15599 (assay: holdup assay). Settings: plain residues with an end cap or a label only (N-terminal biotin on a linker: ado-ado).
NHERF2_2, Q15599, sequence (Q15599 142-238): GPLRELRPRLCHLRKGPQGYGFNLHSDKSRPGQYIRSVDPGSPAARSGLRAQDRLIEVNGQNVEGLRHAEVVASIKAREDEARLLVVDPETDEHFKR
Parameters: key: below the threshold = too weak to quantify, mostly under pKd 3.1 to 4
With NNNVVKVDSV [MTNR1A, P48039] the pKd was “below the threshold”.

The binders below were run against MAGI1_1, Q96QZ7 (assay: holdup assay). Settings: plain residues with an end cap or a label only (N-terminal biotin on a linker: ado-ado).
MAGI1_1, Q96QZ7, sequence (Q96QZ7 1-106): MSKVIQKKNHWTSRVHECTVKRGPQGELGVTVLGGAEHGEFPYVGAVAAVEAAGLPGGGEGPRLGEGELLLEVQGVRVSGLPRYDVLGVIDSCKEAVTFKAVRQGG
Parameters: key: below the threshold = too weak to quantify, mostly under pKd 3.1 to 4
For NNNVVKVDSV [MTNR1A, P48039], the pKd was “below the threshold”.

These binders were tested against GRIP2_5, Q9C0E4 (assay: holdup assay). Settings: plain residues with an end cap or a label only (N-terminal biotin on a linker: ado-ado).
GRIP2_5, Q9C0E4, sequence (Q9C0E4 544-642): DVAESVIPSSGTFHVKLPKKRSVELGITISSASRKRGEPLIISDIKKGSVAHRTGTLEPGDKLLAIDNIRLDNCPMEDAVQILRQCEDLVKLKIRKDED
Parameters: key: below the threshold = too weak to quantify, mostly under pKd 3.1 to 4
With NNNVVKVDSV [MTNR1A, P48039] the pKd was “below the threshold”.

Each binder was assayed against IL16_1, Q14005 (assay: holdup assay). Settings: plain residues with an end cap or a label only (N-terminal biotin on a linker: ado-ado).
IL16_1, Q14005, sequence (Q14005 210-306): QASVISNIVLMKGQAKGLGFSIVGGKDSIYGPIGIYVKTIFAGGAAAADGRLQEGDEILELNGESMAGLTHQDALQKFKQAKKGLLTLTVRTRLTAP
Parameters: key: below the threshold = too weak to quantify, mostly under pKd 3.1 to 4
NNNVVKVDSV [MTNR1A, P48039] was tested, and the pKd was “below the threshold”.

These binders were tested against NHERF4_4, Q86UT5 (assay: holdup assay). Settings: plain residues with an end cap or a label only (N-terminal biotin on a linker: ado-ado).
NHERF4_4, Q86UT5, sequence (Q86UT5 464-550): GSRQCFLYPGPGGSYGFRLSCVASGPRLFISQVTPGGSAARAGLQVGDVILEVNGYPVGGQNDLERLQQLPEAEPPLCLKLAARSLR
Parameters: key: below the threshold = too weak to quantify, mostly under pKd 3.1 to 4
NNNVVKVDSV [MTNR1A, P48039] was tested, and the pKd was “below the threshold”.

Each binder was assayed against T9, APBA1_2, Q02410 (assay: holdup assay). Settings: plain residues with an end cap or a label only (N-terminal biotin on a linker: ado-ado).
Parameters: key: below the threshold = too weak to quantify, mostly under pKd 3.1 to 4
Work on NNNVVKVDSV [MTNR1A, P48039] yielded a pKd of 3.92.

What follows are binders tested against GRID2IP_2, A4D2P6 (assay: holdup assay). Settings: plain residues with an end cap or a label only (N-terminal biotin on a linker: ado-ado).
GRID2IP_2, A4D2P6, sequence (A4D2P6 272-370): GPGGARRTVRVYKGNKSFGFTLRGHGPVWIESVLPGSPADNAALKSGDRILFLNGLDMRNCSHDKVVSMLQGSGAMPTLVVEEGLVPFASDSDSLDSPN
Parameters: key: below the threshold = too weak to quantify, mostly under pKd 3.1 to 4
In the case of NNNVVKVDSV [MTNR1A, P48039], the pKd is reported as “below the threshold”.

Each binder was assayed against T10, DLG3_3, Q92796 (assay: holdup assay). Settings: plain residues with an end cap or a label only (N-terminal biotin on a linker: ado-ado).
Parameters: key: below the threshold = too weak to quantify, mostly under pKd 3.1 to 4
In the case of NNNVVKVDSV [MTNR1A, P48039], the pKd is reported as “below the threshold”.
